Assay results from doi:10.1101/2020.12.08.416958.

Molecular target: L-lactate oxidase (UniProt Q44467)
Assay: ITC

Sequence of UniProt Q44467 (Q44467 whole entry): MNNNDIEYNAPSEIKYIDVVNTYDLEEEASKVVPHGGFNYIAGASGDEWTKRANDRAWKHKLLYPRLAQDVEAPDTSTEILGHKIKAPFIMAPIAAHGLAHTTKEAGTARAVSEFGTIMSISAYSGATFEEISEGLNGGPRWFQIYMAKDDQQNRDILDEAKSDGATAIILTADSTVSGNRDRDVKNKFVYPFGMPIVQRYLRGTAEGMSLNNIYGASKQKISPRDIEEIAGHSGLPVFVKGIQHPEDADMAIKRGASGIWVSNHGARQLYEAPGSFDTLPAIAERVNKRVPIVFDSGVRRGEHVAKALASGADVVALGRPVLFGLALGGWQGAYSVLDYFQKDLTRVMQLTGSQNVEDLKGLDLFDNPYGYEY

For “Poly-L-lysine hydrobromide (molecular weight 4,000-15,000 Da) (peptide)”, which maximum enthalpy is on record?
Its maximum enthalpy is 2.93 kJ/mol.
